Data published in publication PMC1635277.

Key:
Test in all cases: purified protein
Conditions in all cases: 20 mM Tris-HCl pH 8.5, 50 mM NaCl, 100 µg/ml BSA, 37°C
[1] = system: Nc1nc2c(ncn2[C@@H]2O[C@H](CO)[C@@H](OP(=O)(O)OC[C@H]3O[C@@H](n4ccc(=O)[nH]c4=O)[C@H](O)[C@@H]3OP(=O)(O)O)[C@H]2O)c(=O)[nH]1
[2] = system: Nc1nc2c(ncn2[C@@H]2O[C@H](CO)[C@@H](OP(=O)(O)OC[C@H]3O[C@@H](n4ccc(=O)[nH]c4=O)[C@H](O)[C@@H]3OP(=O)(O)OC[C@H]3O[C@@H](n4cnc5c(N)ncnc54)[C@H](O)[C@@H]3O)[C@H]2O)c(=O)[nH]1
[3] = system: Nc1nc2c(ncn2[C@@H]2O[C@H](COP(=O)(O)O[C@H]3[C@@H](O)[C@H](n4ccc(=O)[nH]c4=O)O[C@@H]3CO)[C@@H](OP(=O)(O)OC[C@H]3O[C@@H](n4ccc(=O)[nH]c4=O)[C@H](O)[C@@H]3O)[C@H]2O)c(=O)[nH]1
[4] = system: Nc1nc2c(ncn2[C@@H]2O[C@H](COP(=O)(O)O[C@H]3[C@@H](O)[C@H](n4ccc(=O)[nH]c4=O)O[C@@H]3CO)[C@@H](OP(=O)(O)OC[C@H]3O[C@@H](n4ccc(=O)[nH]c4=O)[C@H](O)[C@@H]3OP(=O)(O)O)[C@H]2O)c(=O)[nH]1
[5] = system: Nc1nc2c(ncn2[C@@H]2O[C@H](COP(=O)(O)O[C@H]3[C@@H](O)[C@H](n4ccc(=O)[nH]c4=O)O[C@@H]3CO)[C@@H](OP(=O)(O)OC[C@H]3O[C@@H](n4ccc(=O)[nH]c4=O)[C@H](O)[C@@H]3OP(=O)(O)OC[C@H]3O[C@@H](n4cnc5c(N)ncnc54)[C@H](O)[C@@H]3O)[C@H]2O)c(=O)[nH]1
[6] = system: Nc1nc2c(ncn2[C@@H]2O[C@H](COP(=O)(O)O[C@H]3[C@@H](O)[C@H](n4cnc5c(N)ncnc54)O[C@@H]3CO)[C@@H](OP(=O)(O)OC[C@H]3O[C@@H](n4ccc(=O)[nH]c4=O)[C@H](O)[C@@H]3OP(=O)(O)OC[C@H]3O[C@@H](n4cnc5c(N)ncnc54)[C@H](O)[C@@H]3O)[C@H]2O)c(=O)[nH]1

E5-CRD (colicin E5 C-terminal ribonuclease domain) (Escherichia coli)
Km [1]: 32.9 (5.5) μM | kcat [1]: 42.9 s⁻¹ | kcat/Km [1]: 1.3e+06 M⁻¹ s⁻¹ | Km [2]: 53.6 (16) μM | kcat [2]: 11.7 s⁻¹ | kcat/Km [2]: 218000 M⁻¹ s⁻¹ | Km [3]: 143 (38) μM | kcat [3]: 3.57 s⁻¹ | kcat/Km [3]: 25100 M⁻¹ s⁻¹ | Km [4]: 41.3 (16) μM | kcat [4]: 34 s⁻¹ | kcat/Km [4]: 823000 M⁻¹ s⁻¹ | Km [5]: 59.5 (18) μM | kcat [5]: 84.2 s⁻¹ | kcat/Km [5]: 1.41e+06 M⁻¹ s⁻¹ | Km [6]: 90.6 (23) μM | kcat [6]: 65.8 s⁻¹ | kcat/Km [6]: 730000 M⁻¹ s⁻¹
